# Results published in a protein production outcome set (Wang et al. 2014).
# Assay: label from the status in PepcDB records
row,Sequence,protein production
1,INKIENYEQSTSQLREEINALYNQVIEVGQALSKQRRIVARELRDHIVSEIQNLQMKDANLEISFKKLEEPNIDGIEFVEFLISPNKGEPLKSLNKIASGGELSRIMLALKSIFVKSRGQTAILFDEVDSGVSGQAAQKMAEKMRDIAEYIQVICISHLPQVASMSDHHLLI,failed
2,INYYDTYIKTCLDNLKRKNTRRSIKLDGKGEPKGAKRAKPVKYTAAKLHEKGVLLDIDDLQTNQFKNVTFDIIATEDVGIFDVRSKFLGVEMEKVQLNIQDLLQMQYEGVAVMKMFDKVKVNVNLLIYLLNKKFYGK,failed
3,IPKHPDSEAVAPDPFNPAATQLLDDTSWVLSAWKQADGTARAVPSADQGAPITLTLSTSTGQRHASGFSGCNRYMGSYALKDGKLSFGTLGGTRMACMTPGGQIEGAYLNALTHIDRTGVQMRAPQQMQLVLDNGDTLTFDRSTR,not failed
4,IPLEQGIEFLSVNVEEDSPVVGKKLKDLPLPRDSIIAAIVRGGVLVVPRGDTEILSGDKLYVIVSAEAKETVEETLLGR,not failed
5,IQVDYEDVKLDGYFFSPSWIKGPKPTILALNGGDEWSIENYFWLGPAFISCGYNFMVYDQPGTGLSMYEKGKGRRADSEAFHSRAIDFLLTRPEVDPNKIIVHGESFAAYDSLRFASFDHRIAAVISDGGTHAFDWEAMLKWMPPSLAGHGMRILGAKSLDDFAENPRFAYNLEGVLHQIECPLLVMHGAEEILVQPNPLTQALKNYEQAGSKNKTFFPIEDRRIGGLEHCQVDNINVLHEVVLNWL,not failed
6,ISDQAETPMFNIGSAVPRGELVLAMEKIGKLLQERGGSVVIRGHTDGRQFKGEANDNWRLSMDRAHSAYYMLVRGGLSEERVKQVSGFADRRLQVPSNPLADANRRIEILLEADRG,failed
7,ISKASATRHSQLVTHACRLIETSDPVPSLGQLSARLAVSPFHLHRLFKAETGV,failed
8,ITSVQPPTGLQEWLKMFQSWSGPEKLLALDELIDSCEPTQVKHMMQVIEPQFQRDFISLLPKELALYVLSFLEPKDLLQAAQTCRYWRILAEDNLLWREKCKEEGIDEPLHIKRRKVIKPGFIHSPWKSAYIRQHRIDTNWRRGELKSPKVLKGHDDHVITCLQFCGNRIVSGSDDNTLKVWSAVTGKCLRTLVGHTGGVWSSQMRDNIIISGSTDRTLKVWNAETGECIHTLYGHTSTVRCMHLHEKRVVSGSRDATLRVWDIETGQCLHVLMGHVAAVRCVQYDGRRVVSGAYDFMVKVWDPETETCLHTLQGHTNRVYSLQFDGIHVVSGSLDTSIRVWDVETGNCIHTLTGHQSLTSGMELKDNILVSGNADSTVKIWDIKTGQCLQTLQGPNKHQSAVTCLQFNKNFVITSSDDGTVKLWDLKTGEFIRNLVTLESGGSGGVVWRIRASNTKLVCAVGSRNGTEETKLLVLDFDVDMK,failed
9,KAEAEQNWWEGPPQDLSVHLWYAGPMERAGAESILANRSDGTFLVRQRVKDAAEFAISIKYNVEVKHIKIMTAEGLYRITEKKAFRGLTELVEFYQQNSLKDCFKSLDTTLQFPFKEPEKRTISR,not failed
10,KAKAAFFDIDGTLYREGLISEVFKKLIKYEIIDEEKWYKEVRPEFEKWDNRKGDYDDYLLKMTEIYVDALNGLSKSQVEFIASQVVNQKGERVYTYTRDRIKWHKERGHKIITISGSPIELVRNMAEKYGFDDYRGAEYLLDENDVYTGEVIPMWDSKSKERAVHELEAKYNIDLGESYAYGDTSGDLTMLKMVGNPVCINPTKELVKEILSDEEVKNKIRIIVERK,not failed
11,KEKDTIAAEHKQEASVLLNLHRNKINYLIGETMARMTSLSIAIDRPVDIKKMQSILEKTFDSEPRFSGLYFLNAKGDVTASTTELKTKVNLADRSFFIKAKETKKTVISDSYSSRITGQPIFTICVPVLDSKRNVTDYLVAAIQIDYLKNLINLLSPDVYIEVVNQDGKMIFASGQASHAEDQKPVSGYLDDISWNMKVYPNPVTIEEL,not failed
12,KEMKQIQNEFKERMDEGELLNCMRCGFCLPSCPTYIESGFQETHSPRGRIALMKAVADGMIEPDEDVERSLSLCLGCRACEPVCPSGVKYGQLLEEARDIIHQNKKHSLGE,failed
13,KFTELEFHRIIGTGQFGLVRVVRNIKTNEVYALKVMHKAPIVESKQIEHVINERKILEEACTHPFCVRLCGAYQDKASLYLLQEWVPGGELFHHLDVEGAFDEPTAMFYAANVLLALEFLHAKGIVYRDLKPENLLLDTQGYIKMADFGFAKYIGGDKTYTICGTPDYQAPEVIMRRGTTKAADYWALGVLIFEMLVGDPPFKSLTGDPWDTFRRTLSGRFYVPNFISDQAADLIFKLLQVNPDKRLGSDKRLGAEEIKRHRWFSRIDWRALEQKKLPSPFRPRVRNPLDTSNFDNFDN,not failed
14,KGDDNYYIIFTSGTTGQPKGVQISHDNLLSFTNWMIEDAAFDVPKQPQMLAQPPYSFDLSVMYWAPTLALGGTLFALPKELVADFKQLFTTIAQLPVGIWTSTPSFADMAMLSDDFCQAKMPALTHFYFDGEELTVSTARKLFERFPSAKIINAYGPTEATVALSAIEITREMVDNYT,failed
15,KGKIQEADNAAKLSAIKFVLKDPLTGDYLVDEKEIEEIVKKTGIETVVLKEYKEGVVLGPLYEFVTKDGRNAYVLSGYAPGFGGNVTVVACFIKTEDGFMLNSVRVIDYSQETPGLGAKIGEESIQRRFFPVPPEGLKNGLRVDKDAGLPKGSPEELKKQGIVKVSDVMTGATITPRAVVTALNLMYRYLEEVSK,not failed
16,KKAVINDSNTPLHLLQPAYQGTYGDLTPEQVKKDIDRVFAYIDKETPARVVDKNTGKVITDYTAMGDEAQLERGAFRLASYEWGVTYSALIAAAETTGDKRYTDYVQNRFRFLAEVAPHFKRVYEEKGKTDSQLLQILTPHALDDAGAVCTAMIKLRLKDESLPVDGLIQNYFDFIINKEYRLADGTFARNRPQRNTLWLDDMFMGIPAVAQMSRYDKEAKNKYLAEAVKQFLQFADRMFIPEKGLYRHGWVESSTDHPAFCWARANGWALLTACELLDVLPEDYPQRPKVMDYFRAHVRGVTALQSGEGFWHQLLDCNDSYLETSATAIYVYCLAHAINKGWIDAIAYGPVAQLGWHAVAGKINEEGQVEGTCVGTGMAFDPAFYYYRPVNVYAAHGYGPVLWAGAEMIRLLNTQHPQMNDSAVQYYQEKQKTTAPIFAVDSE,not failed
17,KKFEQVIYRGITEGKSSNEIREELVHQAGMSSDKAAFIARDQTGTILGQMNSERQKRAGFQAFRWSDSGDERVRDSHRERNGKIYFYADNPLLPGEEYNCRCVAE,failed
18,KLKISEASLEDYSEVVHLFNRNHVYQFPDGRPLTVDDLDLTLKVKEVTHLFLLKNHGVLIGTSAFFKFITYGCLDWNSSFSGFLLIDSKSRSGQAITYLYKTILKKITKLKFSNIYTEISNYNKPSLALSKLNGFKEYDKTYEDILHCRSLRSHL,failed
19,KMFFKVIDTLSDNYEKEMLLLEAEAKEQYYQELEKSSREVRKIKHDLKNMLLAICGKAKKQNEISEEIYKIIKELDESDKKIYTSNVVINTIINHKISQAKKLEIKTDVNIKVSKAIHIDYKDAGILLGNILDNAIEACEKIKKKERWIKIDMLHNKNTLFIEVCNSKGKELTNISKSSKSDAHNHGIGISSIKAITKKYDGYVEFVDKGEEFEVVVNLYGMSF,failed
20,KNIEETELVVEEMLEQYPNGKIVRLLFHGEQAKLPIISHIVQEYQVEVSIIQGNIQQTKQGAVGSLYIQLLGEEQNILAAIEGLRKLRVETEVIGNE,not failed
21,KPIKIRGPSHCAGCKEEIKHGQSLLALDKQWHVSCFKCQTCSVILTGEYISKDGVPYCESDYHAQFG,not failed
22,KRYIRKEAADALKTMFDAAKKEGYELAAVSGYRSYDRQKVIFDNEVSLKGERKAKEAVAYPGESEHQTGLAMDISSRSNGFELNEAFGSTADGKWVQDNAYKYGFIIRYPKNKEDITKYEYEPWHLRYVGK,not failed
23,KSEIGKYAPFFSLPNAKGEKITRSSDAFKQKSLLINFWASWNDSISQKQSNSELREIYKKYKKNKYIGMLGISLDVDKQQWKDAIKRDTLDWEQVCDFGGLNSEVAKQYSIYKIPANILLSSDGKILAKNLRGEELKKKIENIVEEA,not failed
24,KSEKRMKLTLKGGAAVDPDSGLEHSAHVLEKGGKVFSATLGLVDIVKGTNSYYKLQLLEDDKENRYWIFRSWGRVGTVIGSNKLEQMPSKEDAIEHFMKLYEEKTGNAWHSKNFTKYPKKFYPLEI,not failed
